Positions count from the first letter of the chain named. Names and notes keep the numbering of the source.
B1: R23E: ADA2 variant SEQ ID NO:30 (protein)
chain: IDETRAHLLLKEKMMRLGGELVLNTKEELANERLMTLKIAEMKEAMRTLIFPPSMHFFQAKHLIERSQVFNILRMMPKGAALHLHDIGIVTMDWLVRNVTYRPHCHICFTPRGIMQFRFAHPTPRPSEKCSKWILLEDYRKRVQNVTEFDDSLLRNFTLVTQHPEVIYTNQNVVWSKFETIFFTISGLIHYAPVFRDYVFRSMQEFYEDNVLYMEIRARLLPVYELSGEHHDEEWSVKTYQEVAQKFVETHPEFIGIKIIYSDHRSKDVAVIAESIRMAMGLRIKFPTVVAGFDLVGHEDTGHSLHDYKEALMIPAKDGVKLPYFFHAGETDWQGTSIDRNILDALMLNTTRIGHGFALSKHPAVRTYSWKKDIPIEVCPISNQVLKLVSDLRNHPVATLMATGHPMVISSDDPAMFGAKGLSYDFYEVFMGIGGMKADLRTLKQLAMNSIKYSTLLESEKNTFMEIWKKRWDKFIADVATK
modifications: human ADA2 R20E, mature numbering
B2: K374E: ADA2 variant SEQ ID NO:21 (protein)
chain: B1 chain with E20R, K371E
modifications: human ADA2 K371E, mature numbering
B3: K374D: ADA2 variant SEQ ID NO:20 (protein)
chain: B1 chain with E20R, K371D
modifications: human ADA2 K371D, mature numbering
B4: S265N: ADA2 variant SEQ ID NO:54 (protein)
chain: B1 chain with E20R, S262N
modifications: human ADA2 S262N, mature numbering
B5: WT ADA2: wild type recombinant human adenosine deaminase 2 with FLAG tag, mature ADA2 SEQ ID NO:5 (protein, listed as Homo sapiens)
chain: B1 chain with E20R
modifications: FLAG tag; ADA2 mature protein
B6: PEG-K374D: rHuADA2-K374D (SEQ ID NO:20) PEGylated on surface exposed lysines with linear PEG-20K (conjugate)
chain: B1 chain with E20R, K371D
modifications: linear PEG-20K on surface lysines; human ADA2 K371D, mature numbering
B7: ADA2: wild-type human adenosine deaminase 2, mature form SEQ ID NO:5, homodimer (protein, listed as Homo sapiens)
chain: B1 chain with E20R
modifications: ADA2 mature protein

Experiment: Heparin-affinity chromatography (heparin-Sepharose, SDS-PAGE)
Type: binding
Details: not given
Description: To assess binding of variants to heparin, heparin-affinity chromatography was employed to identify heparin-bound variants. Heparin binding was tested by mixing 35 μL of rHuADA2 WT and variants with 20 μL heparin-Sepharose™ resin (GE Healthcare, Pittsburgh, Pa.; Cat. No. 17-0998-01), followed by incubating at room temperature for 30 min. The mixture was then centrifuged through a 0.22 μm centrifuge filter and the flow-through, containing the unbound protein, was collected for analysis on an SDS-PAGE gel. 35 μL of 1.5 M NaCl was added to heparin-Sepharose resin and incubated at room temperature (RT) for 10 min to elute the remaining heparin-bound protein from the heparin-Sepharose. Samples of purified WT rHuADA2 and tested variants, before and after mixing with the heparin-Sepharose resin, were analyzed by SDS-PAGE to compare the degree of heparin binding.

Molecule | heparin binding compared to WT
B1 | attenuated heparin binding
B2 | attenuated heparin binding
B3 | attenuated heparin binding

Same assay, conditions: compared to WT rHuADA2; 0.3 mg/mL protein

Molecule | Heparin Column Binding
B1 | Reduced
B2 | Reduced
B3 | Reduced

Experiment: Heparin binding ELISA (heparin coated microtiter plate)
Details: not given
Summary of the method: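 Plates coated with 200 μg/mL heparin in Na2CO3 buffer pH 9.6 overnight at 4° C, then milk-blocked. FLAG-tagged rHuADA2 variants added at 3 μM for 2 h at room temperature. Bound protein detected with HRP-anti-FLAG and TMB, read as OD450.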

Molecule | binding to heparin-coated plates compared to WT ADA2
B4 | attenuated binding to heparin coated plates
B1 | attenuated binding to heparin
B2 | attenuated binding to heparin
B3 | attenuated binding to heparin

Same assay, conditions: Set 1; 3 μM protein

Molecule | Average OD450, heparin binding ELISA
B2 | 0.11
B5 | 0.49
B3 | 0.15

Same assay, conditions: Set 2; 3 μM protein

Molecule | Average OD450, heparin binding ELISA
B1 | 0.2
B5 | 0.55

Same assay, conditions: single and S265N combination variants (Table 34)

Molecule | Heparin Binding ELISA Average OD450
B4 | 0.88
B1 | 0.71
B2 | 0.03
B5 | 2.31
B3 | 0.87

Experiment: Heparin binding capture ELISA (biotin-heparin on streptavidin plate)
Details: PEGylated and non-PEGylated forms (Table 22)
Description: Heparin binding of PEGylated rHuADA2 or variants was assessed by capture ELISA. Binding of rHuADA1 was assessed as a negative control. 100 μL of 0.2 mg/mL biotin-heparin (Sigma-Aldrich, St. Louis, Mo.; Cat No. B9806-10MG) was added to a streptavidin coated 96-well plate (Thermo Fisher Scientific, Rockford, Ill.; Cat. No. 15520), and incubated at room temperature for 1 hour. The plate was washed 6 times with PBS. Then, 150 μL of […] rHuADA2 was added to the heparin coated plate, titrated in 3× serial dilutions, and incubated at room temperature for 2 hours. The plate was then washed 6 times with PBS. A 1000× dilution of goat HRP-anti-FLAG pAb (Abcam, Cambridge, UK; Cat. No. Ab1238) was added to the ELISA plate and incubated at room temperature for 1 hour. The ELISA plate was then washed 6 times with phosphate buffered saline with Tween (PBST) and developed with the 3,3′,5,5′-Tetramethylbenzidine (TMB) substrate solution (Pierce, Thermo Fisher Scientific, Rockford, Ill.) according the manufacturer's instructions and reading the optical density at 450 nm (OD450) on a plate reader.

Molecule | Average OD450, heparin binding capture ELISA
B1 | 0.71
B5 | 2.31
B3 | 0.87
B6 | 0.15

Experiment: Kinetic assessment of adenosine deaminase activity (ammonia assay, Michaelis-Menten)
Type: biochemical
Details: pH 6.5
Summary of the method: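 Coupled ammonia assay: rHuADA2 WT or variants (1 μg/mL, 17 nM in 2× mix) with adenosine 20 μM–20 mM, α-ketoglutarate, NADPH and GDH, at pH 7.6 or pH 6.5 (PIPES), room temperature. Michaelis-Menten fit gave Km, Vmax, kcat, kcat/Km.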

Molecule | Km
B4 | 1.49 mM
B5 | 3.66 mM

Same assay, conditions: pH 6.5; [E] = 8.5 nM

Molecule | Km | Vmax
B4 | 1.49 mM | 45.79 µM/min
B1 | 3.29 mM | 37.16 µM/min
B2 | 3.18 mM | 41.93 µM/min
B5 | 3.66 mM | 31.81 µM/min
B3 | 3.16 mM | 42.98 µM/min

Same assay, conditions: pH 6.5; [E] = 8.5 nM; kcat=Vmax/0.0085/60

Molecule | kcat
B4 | 89.78 s⁻¹
B1 | 72.86 s⁻¹
B2 | 82.22 s⁻¹
B5 | 62.37 s⁻¹
B3 | 84.27 s⁻¹

Same assay, conditions: pH 7.6

Molecule | Km
B4 | 3.02 mM
B5 | 5.25 mM

Same assay, conditions: pH 7.6; [E] = 8.5 nM

Molecule | Km | Vmax
B4 | 3.02 mM | 80.49 µM/min
B1 | 5.06 mM | 29.08 µM/min
B2 | 4.77 mM | 35.13 µM/min
B5 | 5.25 mM | 26.09 µM/min
B3 | 4.88 mM | 28.25 µM/min

Same assay, conditions: pH 7.6; [E] = 8.5 nM; kcat=Vmax/0.0085/60

Molecule | kcat
B4 | 157.82 s⁻¹
B1 | 57.02 s⁻¹
B2 | 68.88 s⁻¹
B5 | 51.16 s⁻¹
B3 | 55.39 s⁻¹

Same assay, conditions: pH 7.6 and pH 6.5

Molecule | kinetics properties compared to WT
B1 | improved kinetics properties compared to WT
B2 | improved kinetics properties compared to WT
B3 | improved kinetics properties compared to WT

Experiment: not given
Details: Daddona and Kelley (1981); cited from earlier work

Molecule | stability at higher temperature
B7 | substantially more stable at higher temperature compared to ADA1

Experiment: not given
Details: mouse, in vivo, iv, 7.5 mg/kg

Molecule | AUC (mU * h)/mL | Half life slow (t1/2) | Percent increase in AUC compared to WT ADA2 | Percent increase in t1/2 compared to WT ADA2
B3 | 74,983 (mU * h)/mL | 228 min | 128% | 230%
B6 | 2,725,000 (mU * h)/mL | 1305 min | 8187% | 1791%

Experiment: In vivo pharmacokinetics of rHuADA2, variants and PEGylated forms (Example 9)
Details: male BALB/c mice, 7.5 mg/kg intravenous
Description: Fifty four (54) male BALB/c mice were divided into six (6) dosing groups, and were further divided into three (3) groups each for sampling of blood at different time points. Thus, the mice were randomized into eighteen (18) groups total. Mice were weighed prior to the start of the study, and randomized into the 18 groups based upon their body weights. In each sampling group, three groups of (3) mice were used for dosing each test article to prevent oversampling of the blood from the animals. For measurement of baseline ADA2 levels, a blood sample was obtained from 12 randomly chosen mice and plasma was prepared using the anti-coagulant potassium (K3) ethylene diamine tetraacetic acid (K3-EDTA). All blood was collected by submandibular venipuncture.
Each mouse was injected by intravenous tail-vein injection with a 7.5 mg/kg dose of one of six ADA2 test article as set forth in Table 24, i.e. rHuADA2-K374D (K371D by mature numbering), PEG-rHuADA2-K374D (PEG-K371D by mature numbering), rHuADA2-R23E (R20E by mature numbering), PEG-rHuADA2-R23E (PEG-R20E by mature numbering), or WT ADA2 and PEG-WT ADA2.
Blood was collected at designated sampling time points from appropriate groups of mice as indicated below in Table 24 and kept on ice until plasma preparation. Plasma was prepared by centrifuging the blood (500×g for 5 min at 4° C.), transferring the plasma to a fresh tube and immediately freezing at −80° C. until the adenosine deaminase activity assay. Adenosine deaminase activity was determined as described in Example 4. The half-life, or time taken for the activity of ADA2 proteins to be reduced by half, was calculated. Also, total exposure was measured by calculating the Area Under the Concentration-time Curve (AUC).

Molecule | Half life slow (t1/2)
B1 | 151 min
B5 | 69 min

Same assay, conditions: male BALB/c mice, 7.5 mg/kg intravenous; vs non-PEGylated WT

Molecule | Percent increase in AUC compared to WT ADA2 | Percent increase in t1/2 compared to WT ADA2
B1 | 19% | 119%
